Publication PMC9879999, “A phosphoinositide hub connects CLE peptide signaling and polar auxin efflux regulation” (Nature Communications, 2023)

Target: T1, 6xHis-PBL34 (Arabidopsis thaliana, UniProt Q9LFP7 1-493)
T1 construct: also called 6x His-tagged PBL34 fusion protein; source: E. coli BL21(DE3)-VR2-pACYC-LamP, purified (HisPur cobalt resin); not shown: 6xHis, N-terminal, kept
T1 sequence (looked up): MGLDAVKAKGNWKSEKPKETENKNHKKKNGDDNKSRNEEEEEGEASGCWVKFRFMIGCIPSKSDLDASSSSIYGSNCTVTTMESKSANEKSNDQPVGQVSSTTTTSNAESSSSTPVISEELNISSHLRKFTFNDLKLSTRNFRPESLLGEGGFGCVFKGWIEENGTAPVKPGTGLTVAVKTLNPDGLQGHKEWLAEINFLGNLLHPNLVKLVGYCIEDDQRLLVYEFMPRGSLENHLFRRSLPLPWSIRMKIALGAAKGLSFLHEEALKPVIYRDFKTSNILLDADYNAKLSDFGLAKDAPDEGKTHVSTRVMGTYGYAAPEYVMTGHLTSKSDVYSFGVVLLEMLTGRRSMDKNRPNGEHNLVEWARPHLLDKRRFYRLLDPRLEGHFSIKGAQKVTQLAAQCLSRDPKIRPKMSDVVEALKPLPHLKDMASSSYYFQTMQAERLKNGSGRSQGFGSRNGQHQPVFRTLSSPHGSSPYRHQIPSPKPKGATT
Assay: pull-down; in vitro pulldown with amylose beads; MBP fusion protein as bait, 6xHis-PBL34 detected by Western blot
Conditions: both partners purified

B1: 6xHis-MBP-BRX (natural protein, Arabidopsis thaliana, UniProt Q17TI5 1-344, looked up)
chain: MFSCIACTKADGGEEVEHGARGGTTPNTKEAVKSLTIQIKDMALKFSGAYKQCKPCTGSSSSPLKKGHRSFPDYDNASEGVPYPFMGGSAGSTPAWDFTNSSHHPAGRLESKFTSIYGNDRESISAQSCDVVLDDDGPKEWMAQVEPGVHITFASLPTGGNDLKRIRFSREMFDKWQAQRWWGENYDKIVELYNVQRFNRQALQTPARSDDQSQRDSTYSKMDSARESKDWTPRHNFRPPGSVPHHFYGGSSNYGPGSYHGGPPMDAARTTTSSRDDPPSMSNASEMQAEWIEEDEPGVYITIRQLSDGTRELRRVRFSRERFGEVHAKTWWEQNRERIQTQYL
notes: source: E. coli BL21(DE3) Rosetta pLysS, purified (HisPur cobalt resin); not shown: MBP, N-terminal, kept
B1: binds.
